In the Immune Epitope Database (IEDB):

Key:
HLA-A*01:01 [1] = experiment: IEDB peptide-MHC binding, purified MHC/direct/fluorescence; filed as Kd, often an IC50 or EC50 that approximates it; ≥ and ≤ were set here for values at or beyond the usual limits of such assays
HLA-A*03:01 [2] = experiment: as above
HLA-A*11:01 = experiment: as above
HLA-A*31:01 = experiment: as above
HLA-B*07:02 = experiment: as above; details: source organism: Vibrio vulnificus YJ016
HLA-B*15:01 [3] = experiment: as above
HLA-B*15:17 [4] = experiment: as above
HLA-B*18:01 = experiment: as above
HLA-B*27:05 = experiment: as above
HLA-B*38:01 = experiment: as above
HLA-B*39:01 = experiment: as above
HLA-B*40:01 = experiment: as above
HLA-B*46:01 = experiment: as above
HLA-B*48:01 = experiment: as above
HLA-B*51:01 = experiment: as above
HLA-B*57:01 = experiment: as above
HLA-B*58:01 = experiment: as above
HLA-A*02:01 [5] = experiment: IEDB peptide-MHC binding, purified MHC/competitive/fluorescence; filed as Kd, often an IC50 or EC50 that approximates it; ≥ and ≤ were set here for values at or beyond the usual limits of such assays; details: source organism: Vibrio vulnificus YJ016
HLA-A*26:01 [6] = experiment: as above; details: source organism: Vibrio vulnificus YJ016
HLA-A*30:01 = experiment: as above; details: source organism: Vibrio vulnificus YJ016
HLA-A*69:01 [7] = experiment: as above; details: source organism: Vibrio vulnificus YJ016
HLA-A*02:01 [8] = experiment: IEDB peptide-MHC binding, purified MHC/direct/fluorescence; filed as Kd, often an IC50 or EC50 that approximates it; ≥ and ≤ were set here for values at or beyond the usual limits of such assays
HLA-A*69:01 [9] = experiment: as above
HLA-A*01:01 [10] = experiment: IEDB peptide-MHC binding, purified MHC/competitive/fluorescence; filed as Kd, often an IC50 or EC50 that approximates it; ≥ and ≤ were set here for values at or beyond the usual limits of such assays; details: source organism: Mycobacterium tuberculosis str. Haarlem
HLA-A*26:01 [11] = experiment: IEDB peptide-MHC binding, purified MHC/direct/fluorescence; filed as Kd, often an IC50 or EC50 that approximates it; ≥ and ≤ were set here for values at or beyond the usual limits of such assays; details: source organism: Vibrio parahaemolyticus AQ3810
HLA-B*08:02 = experiment: as above; details: source organism: Vibrio parahaemolyticus AQ3810
HLA-A*03:01 [12] = experiment: IEDB peptide-MHC binding, purified MHC/competitive/fluorescence; filed as Kd, often an IC50 or EC50 that approximates it; ≥ and ≤ were set here for values at or beyond the usual limits of such assays; details: source organism: Vibrio parahaemolyticus RIMD 2210633
HLA-B*15:01 [13] = experiment: as above; details: source organism: Vibrio parahaemolyticus RIMD 2210633
HLA-B*15:17 [14] = experiment: as above; details: source organism: Vibrio parahaemolyticus RIMD 2210633
[15] = source organism: Vibrio vulnificus YJ016
[16] = source organism: Mycobacterium tuberculosis
[17] = source organism: Vibrio parahaemolyticus
[18] = source organism: Vibrio parahaemolyticus AQ3810

Sequence: IVAQGIAAL
- Kd (HLA-A*01:01 [1]; [15]): ≥ 20 µM
- Kd (HLA-A*03:01 [2]; [15]): ≥ 20 µM
- Kd (HLA-A*11:01; [15]): ≥ 20 µM
- Kd (HLA-A*31:01; [15]): ≥ 20 µM
- Kd (HLA-B*07:02): 0.086 µM
- Kd (HLA-B*15:01 [3]; [15]): 0.048 µM
- Kd (HLA-B*15:17 [4]; [15]): 0.0475 µM
- Kd (HLA-B*18:01; [15]): ≥ 20 µM
- Kd (HLA-B*27:05; [15]): ≥ 20 µM
- Kd (HLA-B*38:01; [15]): ≥ 20 µM
- Kd (HLA-B*39:01; [15]): 0.22 µM
- Kd (HLA-B*40:01; [15]): ≥ 20 µM
- Kd (HLA-B*46:01; [15]): 9 µM
- Kd (HLA-B*48:01; [15]): ≥ 20 µM
- Kd (HLA-B*51:01; [15]): ≥ 20 µM
- Kd (HLA-B*57:01; [15]): ≥ 20 µM
- Kd (HLA-B*58:01; [15]): ≥ 20 µM
- Kd (HLA-A*02:01 [5]): 0.0181 µM
- Kd (HLA-A*26:01 [6]): ≥ 20 µM
- Kd (HLA-A*30:01): ≥ 20 µM
- Kd (HLA-A*69:01 [7]): 0.0077 µM

Sequence: GPAGYTAAL
- Kd (HLA-A*02:01 [8]; [16]): ≥ 20 µM
- Kd (HLA-A*03:01 [2]; [16]): ≥ 20 µM
- Kd (HLA-A*11:01; [16]): ≥ 20 µM
- Kd (HLA-A*31:01; [16]): ≥ 20 µM
- Kd (HLA-A*69:01 [9]; [16]): ≥ 20 µM
- Kd (HLA-B*15:01 [3]; [16]): ≥ 20 µM
- Kd (HLA-B*15:17 [4]; [16]): ≥ 20 µM
- Kd (HLA-B*18:01; [16]): ≥ 20 µM
- Kd (HLA-B*27:05; [16]): ≥ 20 µM
- Kd (HLA-B*38:01; source organism: Mycobacterium tuberculosis str. Haarlem): ≥ 20 µM
- Kd (HLA-B*40:01; [16]): ≥ 20 µM
- Kd (HLA-B*46:01; [16]): ≥ 20 µM
- Kd (HLA-B*48:01; [16]): ≥ 20 µM
- Kd (HLA-B*51:01; [16]): ≥ 20 µM
- Kd (HLA-B*57:01; [16]): ≥ 20 µM
- Kd (HLA-B*58:01; [16]): ≥ 20 µM
- Kd (HLA-A*01:01 [10]): ≥ 20 µM

Sequence: RSTLANGWY
- Kd (HLA-A*01:01 [1]; [17]): 0.274 µM
- Kd (HLA-A*02:01 [8]; [17]): ≥ 20 µM
- Kd (HLA-A*11:01; [17]): ≥ 20 µM
- Kd (HLA-A*26:01 [11]): 0.59 µM
- Kd (HLA-A*31:01; [17]): ≥ 20 µM
- Kd (HLA-A*69:01 [9]; [17]): ≥ 20 µM
- Kd (HLA-B*08:02): ≥ 20 µM
- Kd (HLA-B*18:01; [17]): ≥ 20 µM
- Kd (HLA-B*27:05; [17]): ≥ 20 µM
- Kd (HLA-B*38:01; [18]): ≥ 20 µM
- Kd (HLA-B*39:01; [18]): ≥ 20 µM
- Kd (HLA-B*40:01; [17]): ≥ 20 µM
- Kd (HLA-B*46:01; [17]): ≥ 20 µM
- Kd (HLA-B*48:01; [17]): ≥ 20 µM
- Kd (HLA-B*57:01; [17]): 0.268 µM
- Kd (HLA-B*58:01; [17]): 0.059 µM
- Kd (HLA-A*03:01 [12]): 1.48 µM
- Kd (HLA-B*15:01 [13]): 0.0942 µM
- Kd (HLA-B*15:17 [14]): 0.0012 µM
